The target in experiment [1] is T1, Recombinant human IGFBP3 (human, UniProt P17936 28-291).
T1 construct: also called rhIGFBP3; hIGFBP3
The experiment in a line: Octet BLI; mAb captured via Fc on anti-mouse/anti-human IgG Fc biosensor, human IGFBP3 at 150 nM.
Description: The binding affinity measurements were performed using an Octet instrument (Octet BMIA), which is a Biolayer Interferometry (BLI) platform based on Biomolecular Interaction Analysis.

Experiment [2] concerns the target T1, Recombinant human IGFBP3. Nature of the experiment: ELISA: plate coated with rhIGFBP3 4 µg/ml, His-tagged ecto-TMEM219 10 µg/ml added, detection with anti-HisTag HRP, absorbance.
Description: We also employed a blocking reagent solution (3% BSA in PBS) and a diluent solution (0.5% BSA, 0.05% Tw in PBS).
Plate was incubated 90 minutes at 37° C. and washed with PBS (300 μl/well) and incubated with the blocking reagent (200 μl/well) 2 hours at room temperature. […] After washing steps, plate was then incubated at room temperature for 1 hour with anti 6× His tag HRP diluted 1:2000 in Diluent solution (50 μl/well). ELISA plate was then read after adding visualization solution at ELISAreader and adsorbance was measured.

T1 sequence (P17936 28-291 limits assumed): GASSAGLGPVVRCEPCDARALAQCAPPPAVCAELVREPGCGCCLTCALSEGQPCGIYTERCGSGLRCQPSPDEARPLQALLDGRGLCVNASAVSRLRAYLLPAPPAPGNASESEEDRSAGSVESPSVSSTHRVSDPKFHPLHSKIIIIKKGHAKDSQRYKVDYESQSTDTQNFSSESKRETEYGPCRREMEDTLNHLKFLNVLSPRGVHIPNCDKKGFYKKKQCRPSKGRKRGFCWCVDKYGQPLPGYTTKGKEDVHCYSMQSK

B1: E01 (antibody, V domains shown)
VH: QVQLVESGGGVVQPGRSLRLSCAASGFTFSSYGMHWVRQAPGKGLEWVAVISYDGSNKNYVDSVKGRFTISRDNSKNTLYLQMNSLRAEDTAVYYCARGGEYFYYYGLDVWGQGTTVTVSS
VL: EIVMTQSPATLSLSPGERATLSCRASQSVSSSSLSWYQQKPGQAPRLLIYGASTRATGIPARFSGSGSGTDFTLTISSLQPEDFAVYYCQQDYNLPLTFGGGTKVEIK
notes: From Trianni Mouse hybridomas: chimeric mAb with human VH and VK and mouse constant domains; also called anti-IGFBP3 mAb E01
A word on the Kd: it is the equilibrium constant for the complex coming apart. In the case of B1, the Kd in the experiment with Recombinant human IGFBP3 [1] amounted to 1.2 nM.

B2: E02 (antibody, V domains shown)
VH: QVQLVQSGAEVKKPGASVKVSCKASGYTFSNYGISWVRQAPGQGLEWMGWINTYNGNTNYAQKLQGRVTMTTDTSTSTAYMALRGLRSDDTAVYYCARDRGYSSSPYYYYYGMDVWGQGTTVTVSS
VL: EIVMTQSPATLSLSPGERATLSCRASQSVSSSHLSWYQQKPGQAPRLLIYGASTRATGIPARFSGSGSGTDFTLTISSLQPEDFAVYYCQQDYNLTITFGQGTRLEIK
notes: From Trianni Mouse hybridomas: chimeric mAb with human VH and VK and mouse constant domains; also called anti-IGFBP3 mAb E02
With B2, the equilibrium dissociation constant (Kd) with Recombinant human IGFBP3 [1] was more than 0.001 nM.

B3: E19 (antibody, V domains shown)
VH: QVQLVESGGGVVQPGRSLRLSCAASGFTFSSYGMHWVRQAPGKGLEWVAVISYDGSNKNYVDSVKGRFTISRDNSKNTLYLQMNSLRAEDTAVYYCARGGEYFYYYGLDVWGQGTTVTVSS
VL: AIQLTQSPSSLSASVGDRVTITCRAGQGISSALAWYQQKPGKAPKILIYDASSLESGVPSRFSGSGSGTDFTLTISSLQPEDFATYYCQQFNNYPSTFGQGTKLEIK
notes: From Trianni Mouse hybridomas: chimeric mAb with human VH and VK and mouse constant domains; also called anti-IGFBP3 mAb E19
As for B3, the Kd with Recombinant human IGFBP3 [1] came to 0.69 nM.

B4: E08 (antibody, V domains shown)
VH: QVQLVQSGAEVKKPGASVKVSCKASGYTFSNYGISWVRQAPGQGLEWMGWINTYNGNTNYAQKLQGRVTMTTDTSTSTAYMALRGLRSDDTAVYYCARDRGYSSSPYYYYYGMDVWGQGTTVTVSS
VL: EIVMTQSPATLSLSPGERATLSCRASQSVSSSSLSWYQQKPGQAPRLLIYGASTRATGIPARFSGSGSGTDFTLTISSLQPEDFAVYYCQQDYNLPLTFGGGTKVEIK
notes: From Trianni Mouse hybridomas: chimeric mAb with human VH and VK and mouse constant domains; also called anti-IGFBP3 mAb E08
As for B4, in the experiment with Recombinant human IGFBP3 [1], the Kd was determined as 0.61 nM.

B5: E14 (antibody, V domains shown)
VH: QVQLVQSGAEVKKPGASVKVSCKASGYTFSNYGISWVRQAPGQGLEWMGWINTYNGNTNYAQKLQGRVTMTTDTSTSTAYMALRGLRSDDTAVYYCARDRGYSSSPYYYYYGMDVWGQGTTVTVSS
VL: DIQMTQSPSSLSASIGDRVTITCRASQGISNYLAWFQQKPGKAPKSLIYAASSLQSGVPSKFSGSGSGTDFTLTISSLQPEDFATYYCQQYNSYPFTFGPGTKVDIK
notes: From Trianni Mouse hybridomas: chimeric mAb with human VH and VK and mouse constant domains; also called anti-IGFBP3 mAb E14
As to B5, the equilibrium dissociation constant (Kd) in the experiment with Recombinant human IGFBP3 [1] was 0.85 nM.

B6: E24 (antibody, V domains shown)
VH: QVQLVQSGAEVKKPGASVKVSCKASGYTFTNYGISWVRQAPGQGLEWMGWINAYNGNTNYAQKLQGRVTMTTVTYTSTAYMELRSLRSDDTAVYYCARDRGYSSSPYYYYYGMDVWGQGTTVTVSS
VL: AIQMTQSPSSLSASVGDKVTITCRASQGIRNALGWYQQKPGTAPKLLIYAASSLQSGVPSRFSGSGSGTDFTLTISSLQPEDSATYYCLQDYNYPLTFGGGTKVEIK
notes: From Trianni Mouse hybridomas: chimeric mAb with human VH and VK and mouse constant domains; also called anti-IGFBP3 mAb E24
Turning to B6, in the experiment with Recombinant human IGFBP3 [1], the Kd was more than 0.001 nM.

B7: E20 (antibody, V domains shown)
VH: QVQLVQSGAEVKKPGASVKVSCKASGYTFSNYGISWVRQAPGQGLEWMGWINTYNGNTNYAQKLQGRVTMTTDTSTSTAYMALRGLRSDDTAVYYCARDRGYSSSPYYYYYGMDVWGQGTTVTVSS
VL: DIQMTQSPSSLSASVGDRVTITCRASQGIRNDLGWYQQKPGKAPKRLIYAASSLQSGVPSRFSGSGSGTEFTLTISSLQPEDFATYYCLQHNSYPYTFGQGTKLEIK
notes: From Trianni Mouse hybridomas: chimeric mAb with human VH and VK and mouse constant domains; also called anti-IGFBP3 mAb E20
B7: in the experiment with Recombinant human IGFBP3 [1], the Kd was determined as 0.85 nM.

B8: Human Ecto-TMEM219 (receptor)
chain: THRTGLRSPDIPQDWVSFLRSFGQLTLCPRNGTVTGKWRGSHVVGLLTTLNFGDGPDRNKTRTFQATVLGSQMGLKGSSAGQLVLITARVTTERTAGTCLYFSAVPGILPSSQPPISCSEEGAGNATLSPRMGEECVSVWSHEGLVLTKLLTSEELALCGSR
notes: Produced in E. coli by Genescript; In the ELISA it was detected with anti 6x His tag HRP, so it probably carries a His tag; also called extracellular domain of the TMEM219 receptor
Regarding B8, the binding result with Recombinant human IGFBP3 [2] is recorded as “binds”.

B9: M1 (antibody, V domains shown)
VH: QVQLQESGPGLVKPSETLSLTCTVSGGSISTYYWSWIRQPPGKGLEWIGYIYYSGSTNYNPSLKSRVTISVDTSKNQFSLKLSSVTAADTAVYYCARYDIVTGYPHYYYYVMDVWGQGTTVTVSS
VL: AIQMTQSPSSLSASVGDRVTITCRASRGIRNALGWYQQKPGTAPKLLIYAASSLQSGVPSRFSGSGSGTDFTLTISSLQPEDSATYYCLQDYNYPLTFGGGTKVEIK
notes: Only variable domains are tied to M1; also called anti-IGFBP3 mAb M1; Anti-IGFBP3 M1
Regarding B9, the dissociation constant (Kd) with Recombinant human IGFBP3 [1] is more than 0.001 nM.

The values are drawn from patent US20230039165A1 (ENTHERA S R L, published 2023).
